Molecular target: SUMO1 (UniProt P63165)
Sequence (P63165 1-97): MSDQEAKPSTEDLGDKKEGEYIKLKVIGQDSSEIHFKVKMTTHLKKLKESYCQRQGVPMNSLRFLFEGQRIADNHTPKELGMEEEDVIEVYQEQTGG

Substance: recombinant DPP9V285A (insect cells)
- hydrolysis of GP-AMC by DPP9 V285A: the SUBA mutant DPP9V285A was not activated by SUMO1

Reference: patent US20150266922
